Results published in publication PMC8103107 (2021).

Target: recombinant NRP1-derived trap consisting of the extracellular domain of NRP1 (UniProt O14786 22-856)
Assay: SPR

Sequence of recombinant NRP1-derived trap consisting of the extracellular domain of NRP1 (O14786 22-856): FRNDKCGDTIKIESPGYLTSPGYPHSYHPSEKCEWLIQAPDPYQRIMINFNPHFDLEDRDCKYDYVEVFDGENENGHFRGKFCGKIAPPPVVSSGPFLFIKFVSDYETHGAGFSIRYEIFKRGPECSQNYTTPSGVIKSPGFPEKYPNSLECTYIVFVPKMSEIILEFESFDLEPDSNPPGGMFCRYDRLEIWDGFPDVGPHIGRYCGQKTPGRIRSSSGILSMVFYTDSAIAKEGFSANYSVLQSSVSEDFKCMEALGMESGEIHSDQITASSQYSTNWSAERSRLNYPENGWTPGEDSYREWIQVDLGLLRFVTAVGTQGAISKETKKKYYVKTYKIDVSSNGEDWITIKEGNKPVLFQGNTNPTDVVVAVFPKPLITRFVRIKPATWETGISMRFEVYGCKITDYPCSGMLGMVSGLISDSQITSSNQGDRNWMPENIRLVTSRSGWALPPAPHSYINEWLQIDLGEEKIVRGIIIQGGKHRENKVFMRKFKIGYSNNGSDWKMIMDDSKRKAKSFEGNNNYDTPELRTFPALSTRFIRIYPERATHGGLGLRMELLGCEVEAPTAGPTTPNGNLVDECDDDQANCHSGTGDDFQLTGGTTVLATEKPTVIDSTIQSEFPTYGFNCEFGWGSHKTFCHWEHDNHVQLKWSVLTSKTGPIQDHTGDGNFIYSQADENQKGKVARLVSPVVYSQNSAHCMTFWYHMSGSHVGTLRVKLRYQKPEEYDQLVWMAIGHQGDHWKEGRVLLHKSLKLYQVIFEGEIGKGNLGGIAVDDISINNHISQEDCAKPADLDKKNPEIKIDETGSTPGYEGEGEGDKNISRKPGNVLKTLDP

| Binder | koff |
| --- | --- |
| Semaphorin 3A (ligand) NYQNGKNNVPRLKLSYKEMLESNNVITFNGLANSSSYHTFLLDEERSRLYVGAKDHIFSFDLVNIKDFQKIVWPVSYTRRDECKWAGKDILKECANFIKVLKAYNQTHLYACGTGAFHPICTYIEIGHHPEDNIFKLENSHFENGRGKSPYDPKLLTASLLIDGELYSGTAADFMGRDFAIFRTLGHHHPIRTEQHDSRWLNDPKFISAHLISESDNPEDDKVYFFFRENAIDGEHSGKATHARIGQICKNDFGGHRSLVNKWTTFLKARLICSVPGPNGIDTHFDELQDVFLMNFKDPKNPVVYGVFTTSSNIFKGSAVCMYSMSDVRRVFLGPYAHRDGPNYQWVPYQGRVPYPRPGTCPSKTFGGFDSTKDLPDDVITFARSHPAMYNPVFPMNNRPIVIKTDVNYQFTQIVVDRVDAEDGQYDVMFIGTDVGTVLKVVSIPKETWYDLEEVLLEEMTVFREPTAISAMELSTKQQQLYIGSTAGVAQLPLHRCDIYGKACAECCLARDPYCAWDGSACSRYFPTAKRRTRRQDIRNGDPLTHCSDLHHDNHHGHSPEERIIYGVENSSTFLECSPKSQRALVYWQFQRRNEERKEEIRVDDHIIRTDQGLLLRSLQQKDSGNYLCHAVEHGFIQTLLKVTLEVIDTEHLEELLHKDDDGDGSKTKEMSNSMTPSQKVWYRDFMQLINHPNLNTMDEFCEQVWKRDRKQRRQRPGHTPGNSNKWKHLQENKKGRNRRTHEFERAPRSV | 0.000155 s⁻¹ |
| vascular endothelial growth factor A (ligand, Assumed to be VEGF165, the customary recombinant product, because the isoform is not printed. Mature residues 1-165 equal entry residues 207-395 with the exon 6a region 321-345 replaced by the splice-junction Asn. K321N is this natural splice residue, not an engineered mutation. Disulfide-linked antiparallel homodimer.) APMAEGGGQNHHEVVKFMDVYQRSYCHPIETLVDIFQEYPDEIEYIFKPSCVPLMRCGGCCNDEGLECVPTEESNITMQIMRIKPHQGQHIGEMSFLQHNKCECRPKKDRARQENPCGPCSERRKHLFVQDPQTCKCSCKNTDSRCKARQLELNERTCRCDKPRR | 0.0012 s⁻¹ |
